Data on 2 proteins can be found in paper PMC6890836, “Exploiting Substrate Promiscuity of Ectoine Hydroxylase for Regio- and Stereoselective Modification of Homoectoine” (Frontiers in Microbiology, 2019).

Common to all, as to experiment: purified protein
Substrate in series [1]: CC1=NC(C(=O)O)CCCN1
The class given is biochemical, Sphingopyxis alaskensis. Conditions: 10 mM 2-oxoglutarate, 1 mM FeSO4, 100 mM KCl, 100 mM TES pH 7.5, 15 °C, 1300 U bovine catalase.

Substrate in series [2]: CC1=N[C@H](C(=O)O)CCN1
The series is classed as biochemical, Sphingopyxis alaskensis. Particulars: 10 mM 2-oxoglutarate, 1 mM FeSO4, 100 mM KCl, 100 mM TES pH 7.5, 15 °C, 1300 U bovine catalase.

Substrate in series [3]: CC1=NC(C(=O)O)CCCN1
The class given is biochemical, Stutzerimonas stutzeri. Conditions: 10 mM 2-oxoglutarate, 1 mM FeSO4, 100 mM KCl, 100 mM TES pH 7.5, 35 °C, no catalase.

Substrate in series [4]: CC1=N[C@H](C(=O)O)CCN1
The class given is biochemical, Stutzerimonas stutzeri. Conditions: 10 mM 2-oxoglutarate, 1 mM FeSO4, 100 mM KCl, 100 mM TES pH 7.5, 35 °C, no catalase.

B1: (Sa)EctD, ectoine hydroxylase from S. alaskensis (Sphingopyxis alaskensis RB2256) (protein)
chain: MQDLYPSRQRADAEMRPRLDPVVHSEWTNDAPISARQAAAFDRDGYIVLEDIFSADEVAFLQKAAGNLLADPAALDADTIVTEPQSNEIRSIFEIHAQSPVMARLAADARLADVARFLLGDEVYIHQSRLNYKPGFKGREFYWHSDFETWHVEDGMPRMRALSMSVLLAENTPHNGPLMVIPGSHRTYLTCVGETPDDHYLSSLKKQEYGVPDEESLAELAHRHGIVAPTGKPGTVILFDCNLMHGSNGNITPFPRANAFLVYNAVSNRLEKPFGVEKPRPWFLARRGEPAALRVERGPLVETVPA
notes: full-length, Strep-tag II fusion (tag kept), from plasmid pMP40 in E. coli BL21(DE3); dimer
A word on the Km: it is the concentration of substrate that gives half-maximal velocity. Turning to B1, the Km came to 3100 ± 300 µM in series [1] and 800 ± 100 µM in series [2].

B2: (Ps)EctD, ectoine hydroxylase from P. stutzeri A1501 (Stutzerimonas stutzeri A1501) (protein)
chain: MQADLYPSRQEDQPSWQERLDPVVYRSDLENAPIAAELVERFERDGYLVIPNLFSADEVALFRAELERMRQDPAVAGSGKTIKEPDSGAIRSVFAIHKDNELFARVAADERTAGIARFILGGDLYVHQSRMNFKPGFTGKEFYWHSDFETWHIEDGMPRMRCLSCSILLTDNEPHNGPLMLMPGSHKHYVRCVGATPENHYEKSLRKQEIGIPDQNSLSELASRFGIDCATGPAGSVVFFDCNTMHGSNGNITPSARSNLFYVYNHVDNAVQAPFCEQKPRPAFVAERENFKPLDIRPQQYL
notes: full-length, Strep-tag II fusion (tag kept), from plasmid pMP41 in E. coli BL21(DE3); EctD is a dimer in solution
As to B2, the figures for the Km in series [3] and in series [4] were 2600 ± 200 µM and 2300 ± 200 µM, respectively.
